Laboratory results taken from patent US20110135645A1.

How the values were obtained:
[1] = target: HMPV F ectodomain lacking the transmembrane domain (FΔTM), 6xHis-tagged, strain TN/92-4 (genogroup A2) (human metapneumovirus); test: SPR (BIAcore 2000), HMPV FΔTM immobilized, 1:1 Langmuir fit
[2] = target: F protein of HMPV genogroup B2 strain (virus in plaque reduction assay) (human metapneumovirus) (UniProt Q6WB98); test: cell-based or functional assay
[3] = target: F protein of HMPV genogroup A2 strain (virus in plaque reduction assay) (human metapneumovirus) (UniProt Q6WB98); test: cell-based or functional assay
[4] = target: F protein of HMPV genogroup A1 strain (virus in plaque reduction assay) (human metapneumovirus) (UniProt Q6WB98); test: cell-based or functional assay
[5] = target: F protein of HMPV genogroup B1 strain (virus in plaque reduction assay) (human metapneumovirus) (UniProt Q6WB98); test: cell-based or functional assay

Work on Fab DSλ7 yielded a Kd [1] of 984 pM, a koff [1] of 3.48e-05 s⁻¹ and a Neut. Dilution (60% plaque reduction), B2 (dilution (1:x)) [2] of under 20. For the same substance, the Neut. Conc. (60% plaque reduction) [3] was 1.1 µg/mL, the Neut. Conc. (60% plaque reduction), A2 [3] was 1.1 µg/mL and the Neut. Dilution (60% plaque reduction) (dilution (1:x)) [3] was 1110. The Neut. Dilution (60% plaque reduction), A2 (dilution (1:x)) [3] was 1040, the Neut. Conc. (60% plaque reduction), A1 [4] was 9.8 µg/mL and the Neut. Dilution (60% plaque reduction), A1 (dilution (1:x)) [4] was 120. For the same substance, the Neut. Conc. (60% plaque reduction), B1 [5] was 2.4 µg/mL and the Neut. Dilution (60% plaque reduction), B1 (dilution (1:x)) [5] was 488.
